In patent US20080058263A1 (published 2008):
Changes are numbered by the printed parent chain.

T1: VEGFR-3-Fc (UniProt P35916 25-328)
T1 construct: domain: first three Ig domains; conditioned supernatant of 293T cells; also called VEGFR-3-Fc fusion protein; not shown: Fc fragment of the pIg vector
T1 sequence (looked up): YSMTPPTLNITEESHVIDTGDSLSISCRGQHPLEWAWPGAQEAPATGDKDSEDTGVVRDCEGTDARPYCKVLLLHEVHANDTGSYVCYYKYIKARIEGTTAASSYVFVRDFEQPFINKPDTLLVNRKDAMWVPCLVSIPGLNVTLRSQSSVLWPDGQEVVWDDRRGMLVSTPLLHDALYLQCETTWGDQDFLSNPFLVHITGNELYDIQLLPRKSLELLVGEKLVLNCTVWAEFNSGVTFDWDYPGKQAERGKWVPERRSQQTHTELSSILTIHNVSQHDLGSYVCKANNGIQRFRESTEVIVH

B1: 61-2 (ligand)
chain: GQNHHEVVKFMDVYQRSYCHPREVCIDVGKEYPDEIEYIFKPSCVPLMRCGGCCNDEGLECMNTSTSYLSKTLFEIKPHQGQHIGEMSFLQHNKCECRPKKD
B2: 52-6 (ligand)
chain: AHYNTEILKSIDNEWRKTQCMPIETLVDIFQEFGVATNTFFKPPCVSVYRCGGCCNDEGLECMNTSTSYLSKTLFEIKPHQGQHIGEMSFANHTSCRCMSKLD
B3: 52-8 (ligand)
chain: B2 chain with D57S, E61Q
B4: 52-3 (ligand)
chain: AHYNTEILKSIDNEWRKTQCMPIETLVDIFQEFGVATNTFFKPPCVSVYRCGGCCNSEGLQCVPTEESNITMQIMRIKPHQGQHIGEMSFLQHNKCECRPKKD
B5: 52-7 (ligand)
chain: B4 chain with L91A, Q92N, N94T, K95S, E97R, R99M, P100S, K102L
B6: 22-1 (ligand)
chain: AHYNTEILKSIDNEWRKTQCMPREVCIDVGKEFGVATNTFFKPPCVSVYRCGGCCNDEGLECVPTEESNITMQIMRIKPHQGQHIGEMSFLQHNKCECRPKKDLVFEQKLISEEDLNSAVDHHHHHH
B7: 21-15 (ligand)
chain: AHYNTEILKSIDNEWRKTQCMPREVCIDVGKEYPDEIEYIFKPSCVPLMRCGGCCNSEGLQCVPTEESNITMQIMRITVPLSQGPKPVTISFANHTSCRCMSKLD
B8: 71-1 (ligand)
chain: GQNHHEVVKSIDNEWRKTQCMPREVCIDVGKEYPDEIEYIFKPSCVPLMRCGGCCNDEGLECVPTEESNITMQIMRIKPHQGQHIGEMSFLQHNKCECRPKKD
B9: 71-3 (ligand)
chain: B8 chain with D57S, E61Q
B10: 31-2 (ligand)
chain: GQNHHEVVKSIDNEWRKTQCMPIETLVDIFQEYPDEIEYIFKPSCVPLMRCGGCCNDEGLECVPTEESNITMQIMRIKPHQGQHIGEMSFANHTSCRCMSKLD
B11: 61-10 (ligand)
chain: GQNHHEVVKFMDVYQRSYCHPREVCIDVGKEYPDEIEYIFKPSCVPLMRCGGCCNDEGLECMNTSTSYLSKTLFEITVPLSQGPKPVTISFLQHNKCECRPKKD
B12: 63-10 (ligand)
chain: B11 chain with S43P, P46S, L47V, M48Y
B13: 61-16 (ligand)
chain: B11 chain with D56S, E60Q, L92A, Q93N, N95T, K96S, E98R, R100M, P101S, K103L
B14: 61-12 (ligand)
chain: B11 chain with D56S, E60Q
B15: 62-9 (ligand)
chain: GQNHHEVVKFMDVYQRSYCHPREVCIDVGKEFGVATNTFFKPPCVSVYRCGGCCNDEGLECVPTEESNITMQIMRITVPLSQGPKPVTISFLQHNKCECRPKKD
B16: 62-4 (ligand)
chain: GQNHHEVVKFMDVYQRSYCHPREVCIDVGKEFGVATNTFFKPPCVSVYRCGGCCNSEGLQCMNTSTSYLSKTLFEIKPHQGQHIGEMSFLQHNKCECRPKKD
B17: 53-9 (ligand)
chain: AHYNTEILKSIDNEWRKTQCMPIETLVDIFQEYPDEIEYIFKPPCVSVYRCGGCCNDEGLECVPTEESNITMQIMRITVPLSQGPKPVTISFLQHNKCECRPKKD
B18: 53-13 (ligand)
chain: B17 chain with L93A, Q94N, N96T, K97S, E99R, R101M, P102S, K104L
B19: 53-11 (ligand)
chain: B17 chain with D57S, E61Q
B20: 53-15 (ligand)
chain: B17 chain with D57S, E61Q, L93A, Q94N, N96T, K97S, E99R, R101M, P102S, K104L
B21: 71-2 (ligand)
chain: GQNHHEVVKSIDNEWRKTQCMPREVCIDVGKEYPDEIEYIFKPSCVPLMRCGGCCNDEGLECMNTSTSYLSKTLFEIKPHQGQHIGEMSFLQHNKCECRPKKD
B22: 71-4 (ligand)
chain: B21 chain with D57S, E61Q
B23: 63-5 (ligand)
chain: GQNHHEVVKFMDVYQRSYCHPREVCIDVGKEYPDEIEYIFKPPCVSVYRCGGCCNDEGLECVPTEESNITMQIMRIKPHQGQHIGEMSFANHTSCRCMSKLD
B24: 53-5 (ligand)
chain: AHYNTEILKSIDNEWRKTQCMPIETLVDIFQEYPDEIEYIFKPPCVSVYRCGGCCNDEGLECVPTEESNITMQIMRIKPHQGQHIGEMSFANHTSCRCMSKLD
B25: 62-3 (ligand)
chain: GQNHHEVVKFMDVYQRSYCHPREVCIDVGKEFGVATNTFFKPPCVSVYRCGGCCNSEGLQCVPTEESNITMQIMRIKPHQGQHIGEMSFLQHNKCECRPKKD
B26: 62-7 (ligand)
chain: B25 chain with L90A, Q91N, N93T, K94S, E96R, R98M, P99S, K101L
B27: 62-5 (ligand)
chain: B23 chain with Y32F, P33G, D34V, E35A, I36T, E37N, Y38T, I39F

Molecular target: T2, VEGFR-1-Fc (UniProt P17948 27-338)
T2 construct: domain: first three Ig domains; expressed in Drosophila S2 cells, purified on Protein A sepharose; also called VEGFR-1-Fc fusion protein; not shown: Fc fragment from the Signal-pIgPlus vector
T2 sequence (P17948 27-338): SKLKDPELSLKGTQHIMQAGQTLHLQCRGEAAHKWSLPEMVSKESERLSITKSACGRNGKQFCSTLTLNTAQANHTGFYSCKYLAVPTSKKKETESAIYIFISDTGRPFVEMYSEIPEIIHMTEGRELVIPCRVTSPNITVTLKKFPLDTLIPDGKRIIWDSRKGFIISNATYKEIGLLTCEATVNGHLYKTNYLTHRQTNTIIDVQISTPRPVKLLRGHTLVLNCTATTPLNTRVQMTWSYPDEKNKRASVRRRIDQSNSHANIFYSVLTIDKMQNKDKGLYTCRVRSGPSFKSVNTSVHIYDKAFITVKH
Experiment: receptor-Fc IP
How it was run: (§1)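 fusion protein at 400 ng/ml in an IP mix (PBS, 1.5% BSA, 0.06% Tween 20, 3 μg/ml heparin) was combined with sample supernatant at a 1:2 ratio. Bound ligand captured by immunoprecipitation with pentahistidine antibody.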

Row | binding result | Binder
1 | no binding | B1
2 | no binding | B2
3 | no binding | B3
4 | no binding | B4
5 | no binding | B5
6 | no binding | B6
7 | no binding | B7
8 | no binding | B8
9 | no binding | B9
10 | no binding | B10
11 | no binding | B11
12 | no binding | B12
13 | no binding | B13
14 | no binding | B14
15 | no binding | B15
16 | no binding | B16
17 | no binding | B17
18 | no binding | B18
19 | no binding | B19
20 | no binding | B20
21 | no binding | B21
22 | no binding | B22
23 | no binding | B23
24 | no binding | B24
25 | no binding | B25
26 | no binding | B26
27 | no binding | B27

Molecular target: T3, VEGFR-2-Fc (UniProt P35968 20-322)
T3 construct: domain: first 3 Ig domains; conditioned supernatant of 293T cells; also called VEGFR-2-Fc fusion protein; not shown: Fc fragment of the pIg vector
T3 sequence (P35968 20-322): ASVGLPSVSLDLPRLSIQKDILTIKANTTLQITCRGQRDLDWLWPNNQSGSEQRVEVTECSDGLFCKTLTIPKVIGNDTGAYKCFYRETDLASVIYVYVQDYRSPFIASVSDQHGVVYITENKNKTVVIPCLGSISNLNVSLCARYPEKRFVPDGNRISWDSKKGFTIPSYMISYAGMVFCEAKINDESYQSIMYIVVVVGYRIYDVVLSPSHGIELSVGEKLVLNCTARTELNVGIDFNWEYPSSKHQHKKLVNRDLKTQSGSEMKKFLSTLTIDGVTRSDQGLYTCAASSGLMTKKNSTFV
Experiment: receptor-Fc IP
How it was run: as §1

Row | binding result | Binder
28 | no binding | B1
29 | no binding | B2
30 | no binding | B3
31 | no binding | B4
32 | no binding | B5
33 | no binding | B6
34 | no binding | B7
35 | no binding | B8
36 | no binding | B9
37 | no binding | B10
38 | no binding | B11
39 | no binding | B12
40 | no binding | B13
41 | no binding | B14
42 | no binding | B15
43 | no binding | B16
44 | no binding | B17
45 | no binding | B18
46 | no binding | B19
47 | no binding | B20
48 | no binding | B21
49 | no binding | B22
50 | no binding | B23
51 | no binding | B24
52 | no binding | B25
53 | no binding | B26
54 | no binding | B27

Molecular target: T1, VEGFR-3-Fc
Experiment: receptor-Fc IP
How it was run: as §1

Row | binding result | Binder
55 | no binding | B1
56 | no binding | B2
57 | no binding | B3
58 | no binding | B4
59 | no binding | B5
60 | no binding | B6
61 | no binding | B7
62 | no binding | B8
63 | no binding | B9
64 | no binding | B10
65 | no binding | B11
66 | no binding | B12
67 | no binding | B13
68 | no binding | B14
69 | no binding | B15
70 | no binding | B16
71 | no binding | B17
72 | no binding | B18
73 | no binding | B19
74 | no binding | B20
75 | no binding | B21
76 | no binding | B22
77 | no binding | B23
78 | no binding | B24
79 | no binding | B25
80 | no binding | B26
81 | no binding | B27
